Test results as given in patent US20250019438A1 (AstraZeneca / MedImmune, published 2025).

biological target: Biotinylated recombinant human CD3εδ (Acro Biosystems, CDD-H82W6) (human) (UniProt P07766); test: Octet BLI, biotinylated CD3εδ on streptavidin sensors, 1:1 model
Sequence (P07766 23-126, stated change not applied, chain 1 of 2): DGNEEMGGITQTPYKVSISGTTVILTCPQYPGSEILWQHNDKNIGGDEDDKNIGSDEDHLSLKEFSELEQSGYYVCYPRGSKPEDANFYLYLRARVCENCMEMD
Sequence (P04234 22-105, stated change not applied, chain 2 of 2, further chain): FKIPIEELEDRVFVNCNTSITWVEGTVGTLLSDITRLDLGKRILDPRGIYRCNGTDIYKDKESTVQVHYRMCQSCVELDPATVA

Row | Binder | Kd [µM] | koff [s⁻¹] | kon [M⁻¹ s⁻¹]
1 | EGFR-CD3 DuetMab with anti-CD3 variant AZ Vκ 29 + AZ VH SN75 (bispecific antibody, part only; not given: anti-EGFR arm, constant regions, V domains shown, not shown: another chain or arm of the molecule; a dimerising Fc or GST; small tags and cut ends) VH: EVQLVESGGALVKPGGSLRLSCAASGFTFSNAWMHWVRQAPGKQLEWVAQIKDRSQTYATYYAESVKGRFTISRDDSKNTLYLQMNSLKTEDTAVYYCRGVYYANAPFDYWGQGTLVTVSS VL: DIVMTQSPLSLPVTPGEPASISCRSSQSLVHNTGNTYLSWYLQKPGQSPQSLIYKVSNRASGVPDRFSGSGSGTDFTLKISRVEAEDVGVYYCGQGTQFPFTFGSGTKVEIK | 1.01 | 0.0282 | 27900
2 | EGFR-CD3 DuetMab with anti-CD3 variant AZ Vκ 29 + AZ VH SN82 (bispecific antibody, part only; not given: anti-EGFR arm, constant regions, V domains shown, not shown: another chain or arm of the molecule; a dimerising Fc or GST; small tags and cut ends) VH: EVQLVESGGALVKPGGSLRLSCAASGFTFSNAWMHWVRQAPGKQLEWVAQIKDRSQTYATYYAESVKGRFTISRDDSKNTLYLQMNSLKTEDTAVYYCRGVYYANTPFDYWGQGTLVTVSS VL: DIVMTQSPLSLPVTPGEPASISCRSSQSLVHNTGNTYLSWYLQKPGQSPQSLIYKVSNRASGVPDRFSGSGSGTDFTLKISRVEAEDVGVYYCGQGTQFPFTFGSGTKVEIK | 1.86 | 0.0422 | 22700
3 | EGFR-CD3 DuetMab with anti-CD3 variant AZ Vκ 17 + AZ VH R75 (bispecific antibody, part only; not given: anti-EGFR arm, constant regions, V domains shown, not shown: another chain or arm of the molecule; a dimerising Fc or GST; small tags and cut ends) VH: EVQLVESGGALVKPGGSLRLSCAASGFTFTRAWMHWVRQAPGKQLEWVAQIKDRSQTYATYYAESVKGRFTISRDDSKNTLYLQMNSLKTEDTAVYYCRGVYYANAPFDYWGQGTLVTVSS VL: DIVMTQSPLSLPVTPGEPASISCRSSQSLVHNTGNTYLSWYLQKPGQSPQSLIYKVSNRASGVPDRFSGSGSGTDFTLKISRVEAEDVGVYYCGQGTQAPFTFGSGTKVEIK | 0.266 | 0.00644 | 24200
4 | EGFR-CD3 DuetMab with anti-CD3 variant AZ Vκ 17 + AZ VH SN82 (bispecific antibody, part only; not given: anti-EGFR arm, constant regions, V domains shown, not shown: another chain or arm of the molecule; a dimerising Fc or GST; small tags and cut ends) VH: EVQLVESGGALVKPGGSLRLSCAASGFTFSNAWMHWVRQAPGKQLEWVAQIKDRSQTYATYYAESVKGRFTISRDDSKNTLYLQMNSLKTEDTAVYYCRGVYYANTPFDYWGQGTLVTVSS VL: DIVMTQSPLSLPVTPGEPASISCRSSQSLVHNTGNTYLSWYLQKPGQSPQSLIYKVSNRASGVPDRFSGSGSGTDFTLKISRVEAEDVGVYYCGQGTQAPFTFGSGTKVEIK | 1.64 | 0.0149 | 9100
5 | EGFR-CD3 DuetMab with anti-CD3 variant AZ Vκ 17 + AZ VH SN75 (bispecific antibody, part only; not given: anti-EGFR arm, constant regions, V domains shown, not shown: another chain or arm of the molecule; a dimerising Fc or GST; small tags and cut ends) VH: EVQLVESGGALVKPGGSLRLSCAASGFTFSNAWMHWVRQAPGKQLEWVAQIKDRSQTYATYYAESVKGRFTISRDDSKNTLYLQMNSLKTEDTAVYYCRGVYYANAPFDYWGQGTLVTVSS VL: DIVMTQSPLSLPVTPGEPASISCRSSQSLVHNTGNTYLSWYLQKPGQSPQSLIYKVSNRASGVPDRFSGSGSGTDFTLKISRVEAEDVGVYYCGQGTQAPFTFGSGTKVEIK | 0.853 | 0.00923 | 10800
6 | EGFR-CD3 DuetMab with anti-CD3 variant AZ Vκ 17 + AZ VH R82 (bispecific antibody, part only; not given: anti-EGFR arm, constant regions, V domains shown, not shown: another chain or arm of the molecule; a dimerising Fc or GST; small tags and cut ends) VH: EVQLVESGGALVKPGGSLRLSCAASGFTFTRAWMHWVRQAPGKQLEWVAQIKDRSQTYATYYAESVKGRFTISRDDSKNTLYLQMNSLKTEDTAVYYCRGVYYANTPFDYWGQGTLVTVSS VL: DIVMTQSPLSLPVTPGEPASISCRSSQSLVHNTGNTYLSWYLQKPGQSPQSLIYKVSNRASGVPDRFSGSGSGTDFTLKISRVEAEDVGVYYCGQGTQAPFTFGSGTKVEIK | 0.55 | 0.00928 | 16900
7 | EGFR-CD3 DuetMab with anti-CD3 variant AZ Vκ 29 + AZ VH E75 (bispecific antibody, part only; not given: anti-EGFR arm, constant regions, V domains shown, not shown: another chain or arm of the molecule; a dimerising Fc or GST; small tags and cut ends) VH: EVQLVESGGALVKPGGSLRLSCAASGFTFTEAWMHWVRQAPGKQLEWVAQIKDRSQTYATYYAESVKGRFTISRDDSKNTLYLQMNSLKTEDTAVYYCRGVYYANAPFDYWGQGTLVTVSS VL: DIVMTQSPLSLPVTPGEPASISCRSSQSLVHNTGNTYLSWYLQKPGQSPQSLIYKVSNRASGVPDRFSGSGSGTDFTLKISRVEAEDVGVYYCGQGTQFPFTFGSGTKVEIK | 2.22 | 0.0404 | 18200
8 | EGFR-CD3 DuetMab with anti-CD3 variant AZ Vκ 26 + AZ VH R82 (bispecific antibody, part only; not given: anti-EGFR arm, constant regions, V domains shown, not shown: another chain or arm of the molecule; a dimerising Fc or GST; small tags and cut ends) VH: EVQLVESGGALVKPGGSLRLSCAASGFTFTRAWMHWVRQAPGKQLEWVAQIKDRSQTYATYYAESVKGRFTISRDDSKNTLYLQMNSLKTEDTAVYYCRGVYYANTPFDYWGQGTLVTVSS VL: DIVMTQSPLSLPVTPGEPASISCRSSQSLVHNTGNTYLSWYLQKPGQSPQSLIYKVSNRASGVPDRFSGSGSGTDFTLKISRVEAEDVGVYYCGQGTQAPFSFGSGTKVEIK | 0.411 | 0.00711 | 17300
9 | EGFR-CD3 DuetMab with anti-CD3 variant AZ Vκ 17 + AZ VH E79 (bispecific antibody, part only; not given: anti-EGFR arm, constant regions, V domains shown, not shown: another chain or arm of the molecule; a dimerising Fc or GST; small tags and cut ends) VH: EVQLVESGGALVKPGGSLRLSCAASGFTFTEAWMHWVRQAPGKQLEWVAQIKDRSQTYATYYAESVKGRFTISRDDSKNTLYLQMNSLKTEDTAVYYCRGVYYAVTPFDYWGQGTLVTVSS VL: DIVMTQSPLSLPVTPGEPASISCRSSQSLVHNTGNTYLSWYLQKPGQSPQSLIYKVSNRASGVPDRFSGSGSGTDFTLKISRVEAEDVGVYYCGQGTQAPFTFGSGTKVEIK | 5.62 | 0.0497 | 8850
10 | EGFR-CD3 DuetMab with anti-CD3 variant AZ Vκ 26 + AZ VH R79 (bispecific antibody, part only; not given: anti-EGFR arm, constant regions, V domains shown, not shown: another chain or arm of the molecule; a dimerising Fc or GST; small tags and cut ends) VH: EVQLVESGGALVKPGGSLRLSCAASGFTFTRAWMHWVRQAPGKQLEWVAQIKDRSQTYATYYAESVKGRFTISRDDSKNTLYLQMNSLKTEDTAVYYCRGVYYAVTPFDYWGQGTLVTVSS VL: DIVMTQSPLSLPVTPGEPASISCRSSQSLVHNTGNTYLSWYLQKPGQSPQSLIYKVSNRASGVPDRFSGSGSGTDFTLKISRVEAEDVGVYYCGQGTQAPFSFGSGTKVEIK | 0.712 | 0.0233 | 32700
11 | EGFR-CD3 DuetMab with anti-CD3 variant AZ Vκ 29 + AZ VH SN79 (bispecific antibody, part only; not given: anti-EGFR arm, constant regions, V domains shown, not shown: another chain or arm of the molecule; a dimerising Fc or GST; small tags and cut ends) VH: EVQLVESGGALVKPGGSLRLSCAASGFTFSNAWMHWVRQAPGKQLEWVAQIKDRSQTYATYYAESVKGRFTISRDDSKNTLYLQMNSLKTEDTAVYYCRGVYYAVTPFDYWGQGTLVTVSS VL: DIVMTQSPLSLPVTPGEPASISCRSSQSLVHNTGNTYLSWYLQKPGQSPQSLIYKVSNRASGVPDRFSGSGSGTDFTLKISRVEAEDVGVYYCGQGTQFPFTFGSGTKVEIK | 2.67 | 0.114 | 42800
12 | EGFR-CD3 DuetMab with anti-CD3 variant AZ Vκ 17 + AZ VH R79 (bispecific antibody, part only; not given: anti-EGFR arm, constant regions, V domains shown, not shown: another chain or arm of the molecule; a dimerising Fc or GST; small tags and cut ends) VH: EVQLVESGGALVKPGGSLRLSCAASGFTFTRAWMHWVRQAPGKQLEWVAQIKDRSQTYATYYAESVKGRFTISRDDSKNTLYLQMNSLKTEDTAVYYCRGVYYAVTPFDYWGQGTLVTVSS VL: DIVMTQSPLSLPVTPGEPASISCRSSQSLVHNTGNTYLSWYLQKPGQSPQSLIYKVSNRASGVPDRFSGSGSGTDFTLKISRVEAEDVGVYYCGQGTQAPFTFGSGTKVEIK | 0.734 | 0.018 | 24600
13 | EGFR-CD3 DuetMab with anti-CD3 variant AZ Vκ 17 + AZ VH E75 (bispecific antibody, part only; not given: anti-EGFR arm, constant regions, V domains shown, not shown: another chain or arm of the molecule; a dimerising Fc or GST; small tags and cut ends) VH: EVQLVESGGALVKPGGSLRLSCAASGFTFTEAWMHWVRQAPGKQLEWVAQIKDRSQTYATYYAESVKGRFTISRDDSKNTLYLQMNSLKTEDTAVYYCRGVYYANAPFDYWGQGTLVTVSS VL: DIVMTQSPLSLPVTPGEPASISCRSSQSLVHNTGNTYLSWYLQKPGQSPQSLIYKVSNRASGVPDRFSGSGSGTDFTLKISRVEAEDVGVYYCGQGTQAPFTFGSGTKVEIK | 2.79 | 0.0198 | 7100
14 | EGFR-CD3 DuetMab with anti-CD3 variant AZ Vκ 26 + AZ VH R75 (bispecific antibody, part only; not given: anti-EGFR arm, constant regions, V domains shown, not shown: another chain or arm of the molecule; a dimerising Fc or GST; small tags and cut ends) VH: EVQLVESGGALVKPGGSLRLSCAASGFTFTRAWMHWVRQAPGKQLEWVAQIKDRSQTYATYYAESVKGRFTISRDDSKNTLYLQMNSLKTEDTAVYYCRGVYYANAPFDYWGQGTLVTVSS VL: DIVMTQSPLSLPVTPGEPASISCRSSQSLVHNTGNTYLSWYLQKPGQSPQSLIYKVSNRASGVPDRFSGSGSGTDFTLKISRVEAEDVGVYYCGQGTQAPFSFGSGTKVEIK | 0.217 | 0.00605 | 27900
15 | EGFR-CD3 DuetMab with anti-CD3 variant AZ Vκ 17 + AZ VH SN79 (bispecific antibody, part only; not given: anti-EGFR arm, constant regions, V domains shown, not shown: another chain or arm of the molecule; a dimerising Fc or GST; small tags and cut ends) VH: EVQLVESGGALVKPGGSLRLSCAASGFTFSNAWMHWVRQAPGKQLEWVAQIKDRSQTYATYYAESVKGRFTISRDDSKNTLYLQMNSLKTEDTAVYYCRGVYYAVTPFDYWGQGTLVTVSS VL: DIVMTQSPLSLPVTPGEPASISCRSSQSLVHNTGNTYLSWYLQKPGQSPQSLIYKVSNRASGVPDRFSGSGSGTDFTLKISRVEAEDVGVYYCGQGTQAPFTFGSGTKVEIK | 2.05 | 0.032 | 15600
16 | EGFR-CD3 DuetMab with anti-CD3 variant AZ Vκ 29 + AZ VH E79 (bispecific antibody, part only; not given: anti-EGFR arm, constant regions, V domains shown, not shown: another chain or arm of the molecule; a dimerising Fc or GST; small tags and cut ends) VH: EVQLVESGGALVKPGGSLRLSCAASGFTFTEAWMHWVRQAPGKQLEWVAQIKDRSQTYATYYAESVKGRFTISRDDSKNTLYLQMNSLKTEDTAVYYCRGVYYAVTPFDYWGQGTLVTVSS VL: DIVMTQSPLSLPVTPGEPASISCRSSQSLVHNTGNTYLSWYLQKPGQSPQSLIYKVSNRASGVPDRFSGSGSGTDFTLKISRVEAEDVGVYYCGQGTQFPFTFGSGTKVEIK | 4.58 | 0.118 | 25800
17 | EGFR-CD3 DuetMab with anti-CD3 variant AZ Vκ 17 + AZ VH E82 (bispecific antibody, part only; not given: anti-EGFR arm, constant regions, V domains shown, not shown: another chain or arm of the molecule; a dimerising Fc or GST; small tags and cut ends) VH: EVQLVESGGALVKPGGSLRLSCAASGFTFTEAWMHWVRQAPGKQLEWVAQIKDRSQTYATYYAESVKGRFTISRDDSKNTLYLQMNSLKTEDTAVYYCRGVYYANTPFDYWGQGTLVTVSS VL: DIVMTQSPLSLPVTPGEPASISCRSSQSLVHNTGNTYLSWYLQKPGQSPQSLIYKVSNRASGVPDRFSGSGSGTDFTLKISRVEAEDVGVYYCGQGTQAPFTFGSGTKVEIK | 4.61 | 0.033 | 7140
18 | EGFR-CD3 DuetMab with anti-CD3 variant AZ Vκ 29 + AZ VH E82 (bispecific antibody, part only; not given: anti-EGFR arm, constant regions, V domains shown, not shown: another chain or arm of the molecule; a dimerising Fc or GST; small tags and cut ends) VH: EVQLVESGGALVKPGGSLRLSCAASGFTFTEAWMHWVRQAPGKQLEWVAQIKDRSQTYATYYAESVKGRFTISRDDSKNTLYLQMNSLKTEDTAVYYCRGVYYANTPFDYWGQGTLVTVSS VL: DIVMTQSPLSLPVTPGEPASISCRSSQSLVHNTGNTYLSWYLQKPGQSPQSLIYKVSNRASGVPDRFSGSGSGTDFTLKISRVEAEDVGVYYCGQGTQFPFTFGSGTKVEIK | 5 | 0.0755 | 15100
